Assay results: patent US20210388087A1 (Chugai, published 2021)

molecular target: T1, CD3 epsilon homodimer protein (UniProt P07766 23-126); experiment: SPR, CD3 epsilon homodimer on chip, one-arm antibody as analyte;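 further: surface plasmon resonance at 25 °C with CD3 epsilon homodimer amine-coupled to a CM4 sensor chip, antibody injected as analyte, HBS-EP+ as running buffer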
T1 construct: also called CD3 (CD3 epsilon)
T1 sequence (P07766 23-126): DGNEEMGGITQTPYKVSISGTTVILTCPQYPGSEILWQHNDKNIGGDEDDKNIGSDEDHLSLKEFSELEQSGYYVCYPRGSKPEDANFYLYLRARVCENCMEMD

Row | Binder | KD ratio (KD of CE115HA000/KD of altered form)
1 | CE115HA000 A60D (antibody, human IgG1, kappa, L234A L235A, N297A, name in Kabat numbering, one-arm antibody) heavy: QVQLVESGGGVVQPGRSLRLSCAASGFTFSNAWMHWVRQAPGKGLEWVAQIKAKSNNYATYYDESVKGRFTISRDDSKNSLYLQMNSLKTEDTAVYYCRYVHYGAYYGVDAWGQGTTVTVSSASTKGPSVFPLAPSSKSTSGGTAALGCLVKDYFPEPVTVSWNSGALTSGVHTFPAVLQSSGLYSLSSVVTVPSSSLGTQTYICNVNHKPSNTKVDKKVEPKSCDKTHTCPPCPAPEAAGGPSVFLFPPKPKDTLMISRTPEVTCVVVDVSHEDPEVKFNWYVDGVEVHNAKTKPREEQYASTYRVVSVLTVLHQDWLNGKEYKCKVSNKALPAPIEKTISKAKGQPREPQVYTLPPSRCELTKNQVSLSCAVKGFYPSDIAVEWESNGQPENNYKTTPPVLDSDGSFFLVSKLTVDKSRWQQGNVFSCSVMHEALHNHYTQKSLSLSPDYKDDDDK EPKSSDKTHTCPPCPAPELLGGPSVFLFPPKPKDTLMISRTPEVTCVVVDVSHEDPEVKFNWYVDGVEVHNAKTKPREEQYNSTYRVVSVLTVLHQDWLNGKEYKCKVSNKALPAPIEKTISKAKGQPREPQVCTLPPSRDELTKNQVSLWCLVKGFYPSDIAVEWESNGQPENNYKTTPPVLDSDGSFFLYSKLTVDKSRWQQGNVFSCSVMHEALHNRYTQKSLSLSP light: DIVMTQSPLSLPVTPGEPASISCRSSQSLVHSNRNTYLHWYQQKPGQAPRLLIYKVSNRFSGVPDRFSGSGSGTDFTLKISRVEAEDVGVYYCGQGTQVPYTFGQGTKLEIKRTVAAPSVFIFPPSDEQLKSGTASVVCLLNNFYPREAKVQWKVDNALQSGNSQESVTEQDSKDSTYSLSSTLTLSKADYEKHKVYACEVTHQGLSSPVTKSFNRGEC | 0.94
2 | CE115HA000 A99F (antibody, human IgG1, kappa, L234A L235A, N297A, name in Kabat numbering, one-arm antibody) heavy: QVQLVESGGGVVQPGRSLRLSCAASGFTFSNAWMHWVRQAPGKGLEWVAQIKAKSNNYATYYAESVKGRFTISRDDSKNSLYLQMNSLKTEDTAVYYCRYVHYGFYYGVDAWGQGTTVTVSSASTKGPSVFPLAPSSKSTSGGTAALGCLVKDYFPEPVTVSWNSGALTSGVHTFPAVLQSSGLYSLSSVVTVPSSSLGTQTYICNVNHKPSNTKVDKKVEPKSCDKTHTCPPCPAPEAAGGPSVFLFPPKPKDTLMISRTPEVTCVVVDVSHEDPEVKFNWYVDGVEVHNAKTKPREEQYASTYRVVSVLTVLHQDWLNGKEYKCKVSNKALPAPIEKTISKAKGQPREPQVYTLPPSRCELTKNQVSLSCAVKGFYPSDIAVEWESNGQPENNYKTTPPVLDSDGSFFLVSKLTVDKSRWQQGNVFSCSVMHEALHNHYTQKSLSLSPDYKDDDDK EPKSSDKTHTCPPCPAPELLGGPSVFLFPPKPKDTLMISRTPEVTCVVVDVSHEDPEVKFNWYVDGVEVHNAKTKPREEQYNSTYRVVSVLTVLHQDWLNGKEYKCKVSNKALPAPIEKTISKAKGQPREPQVCTLPPSRDELTKNQVSLWCLVKGFYPSDIAVEWESNGQPENNYKTTPPVLDSDGSFFLYSKLTVDKSRWQQGNVFSCSVMHEALHNRYTQKSLSLSP light: DIVMTQSPLSLPVTPGEPASISCRSSQSLVHSNRNTYLHWYQQKPGQAPRLLIYKVSNRFSGVPDRFSGSGSGTDFTLKISRVEAEDVGVYYCGQGTQVPYTFGQGTKLEIKRTVAAPSVFIFPPSDEQLKSGTASVVCLLNNFYPREAKVQWKVDNALQSGNSQESVTEQDSKDSTYSLSSTLTLSKADYEKHKVYACEVTHQGLSSPVTKSFNRGEC | 1.15
3 | CE115HA000 A99D (antibody, human IgG1, kappa, L234A L235A, N297A, name in Kabat numbering, one-arm antibody) heavy: QVQLVESGGGVVQPGRSLRLSCAASGFTFSNAWMHWVRQAPGKGLEWVAQIKAKSNNYATYYAESVKGRFTISRDDSKNSLYLQMNSLKTEDTAVYYCRYVHYGDYYGVDAWGQGTTVTVSSASTKGPSVFPLAPSSKSTSGGTAALGCLVKDYFPEPVTVSWNSGALTSGVHTFPAVLQSSGLYSLSSVVTVPSSSLGTQTYICNVNHKPSNTKVDKKVEPKSCDKTHTCPPCPAPEAAGGPSVFLFPPKPKDTLMISRTPEVTCVVVDVSHEDPEVKFNWYVDGVEVHNAKTKPREEQYASTYRVVSVLTVLHQDWLNGKEYKCKVSNKALPAPIEKTISKAKGQPREPQVYTLPPSRCELTKNQVSLSCAVKGFYPSDIAVEWESNGQPENNYKTTPPVLDSDGSFFLVSKLTVDKSRWQQGNVFSCSVMHEALHNHYTQKSLSLSPDYKDDDDK EPKSSDKTHTCPPCPAPELLGGPSVFLFPPKPKDTLMISRTPEVTCVVVDVSHEDPEVKFNWYVDGVEVHNAKTKPREEQYNSTYRVVSVLTVLHQDWLNGKEYKCKVSNKALPAPIEKTISKAKGQPREPQVCTLPPSRDELTKNQVSLWCLVKGFYPSDIAVEWESNGQPENNYKTTPPVLDSDGSFFLYSKLTVDKSRWQQGNVFSCSVMHEALHNRYTQKSLSLSP light: DIVMTQSPLSLPVTPGEPASISCRSSQSLVHSNRNTYLHWYQQKPGQAPRLLIYKVSNRFSGVPDRFSGSGSGTDFTLKISRVEAEDVGVYYCGQGTQVPYTFGQGTKLEIKRTVAAPSVFIFPPSDEQLKSGTASVVCLLNNFYPREAKVQWKVDNALQSGNSQESVTEQDSKDSTYSLSSTLTLSKADYEKHKVYACEVTHQGLSSPVTKSFNRGEC | 1.03
4 | CE115HA000 A60E (antibody, human IgG1, kappa, L234A L235A, N297A, name in Kabat numbering, one-arm antibody) heavy: QVQLVESGGGVVQPGRSLRLSCAASGFTFSNAWMHWVRQAPGKGLEWVAQIKAKSNNYATYYEESVKGRFTISRDDSKNSLYLQMNSLKTEDTAVYYCRYVHYGAYYGVDAWGQGTTVTVSSASTKGPSVFPLAPSSKSTSGGTAALGCLVKDYFPEPVTVSWNSGALTSGVHTFPAVLQSSGLYSLSSVVTVPSSSLGTQTYICNVNHKPSNTKVDKKVEPKSCDKTHTCPPCPAPEAAGGPSVFLFPPKPKDTLMISRTPEVTCVVVDVSHEDPEVKFNWYVDGVEVHNAKTKPREEQYASTYRVVSVLTVLHQDWLNGKEYKCKVSNKALPAPIEKTISKAKGQPREPQVYTLPPSRCELTKNQVSLSCAVKGFYPSDIAVEWESNGQPENNYKTTPPVLDSDGSFFLVSKLTVDKSRWQQGNVFSCSVMHEALHNHYTQKSLSLSPDYKDDDDK EPKSSDKTHTCPPCPAPELLGGPSVFLFPPKPKDTLMISRTPEVTCVVVDVSHEDPEVKFNWYVDGVEVHNAKTKPREEQYNSTYRVVSVLTVLHQDWLNGKEYKCKVSNKALPAPIEKTISKAKGQPREPQVCTLPPSRDELTKNQVSLWCLVKGFYPSDIAVEWESNGQPENNYKTTPPVLDSDGSFFLYSKLTVDKSRWQQGNVFSCSVMHEALHNRYTQKSLSLSP light: DIVMTQSPLSLPVTPGEPASISCRSSQSLVHSNRNTYLHWYQQKPGQAPRLLIYKVSNRFSGVPDRFSGSGSGTDFTLKISRVEAEDVGVYYCGQGTQVPYTFGQGTKLEIKRTVAAPSVFIFPPSDEQLKSGTASVVCLLNNFYPREAKVQWKVDNALQSGNSQESVTEQDSKDSTYSLSSTLTLSKADYEKHKVYACEVTHQGLSSPVTKSFNRGEC | 0.88
